The target in series [1] is T1, RbpB (Bacteroides thetaiotaomicron VPI-5482, UniProt Q8A6J4 1-100).
T1 sequence: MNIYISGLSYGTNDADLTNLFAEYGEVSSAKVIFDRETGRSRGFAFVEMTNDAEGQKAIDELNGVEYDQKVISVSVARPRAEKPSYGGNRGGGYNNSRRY
The series can be described thus: EMSA. (In general: A gel shift assay detects complexes by their altered migration in electrophoresis.)

Series [2] has as its target T1, RbpB. Briefly: EMSA. The source holds these as a separate data set.

Here are results for two molecules from doi:10.1101/2021.04.27.441718.

As for UCCUGUGCUCCUGUGCUCCUGUGC (ssRNA) [Motif 9 x3], the binding result in the series with RbpB [1] is “no binding”. One may read the Kd as a measure of binding affinity in units of concentration. Low readings indicate tighter binding, high ones weaker binding. For the molecule GUAGGAUAGUAGGAUAGUAGGAUA (ssRNA) [Motif 1 x3], in the series with RbpB [2], the Kd is 5.1 µM.
